Data set [1] deals with human ENTPD2 engineered B16LM3 clone B5. In words: Human ENTPD2 engineered B16LM3 clone B5 model, dose response with anti-PD-1 Ab. The format is in vivo. An excerpt: This model was derived from the B16LM3 melanoma model, where endogenous mouse ENTPD2 expression was knocked out via a transient electroporation of CAS9 protein with CRISPR guide RNA sequences against mouse ENTPD2, and human ENTPD2 was overexpressed using a retroviral transduction approach.
Once tumors reached approximately 35-50 mm^3, mice were randomized according to tumor volume into treatment groups (n=8 per group). […] All doses were adjusted to individual mouse body weights.

In another data set the target is T1, mouse ENTPD2 (Mus musculus, UniProt O55026).
T1 construct: residues 29-462 of mouse or rat ENTPD2 (the extracellular domain); mouse IgK signal peptide (N); His6; made in house; host or cells: FreeStyle 293-F cells, transient transfection
T1 sequence (O55026 29-462): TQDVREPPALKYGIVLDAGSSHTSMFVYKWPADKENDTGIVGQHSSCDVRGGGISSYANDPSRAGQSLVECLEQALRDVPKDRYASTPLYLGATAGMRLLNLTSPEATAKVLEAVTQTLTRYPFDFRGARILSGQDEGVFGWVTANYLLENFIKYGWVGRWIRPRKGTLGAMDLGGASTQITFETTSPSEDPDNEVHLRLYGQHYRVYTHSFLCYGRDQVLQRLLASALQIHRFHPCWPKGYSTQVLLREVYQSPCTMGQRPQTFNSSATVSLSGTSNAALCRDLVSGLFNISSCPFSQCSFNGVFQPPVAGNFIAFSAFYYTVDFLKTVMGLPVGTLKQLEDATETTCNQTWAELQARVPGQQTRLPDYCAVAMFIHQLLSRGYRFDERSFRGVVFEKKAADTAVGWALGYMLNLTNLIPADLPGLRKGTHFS
In words: Antibody specificity: binding to mouse ENTPD2. Conditions: Mouse ENTPD2. An excerpt:
Antibody specificity for mAbl-mAblO was confirmed. […] Antibodies mAb8, mAb9, and mAb10 show weak affinity to mouse ENTPD2. None of the selected antibodies bind to rat ENTPD2.

In a further data set the test system is H520 cells. In words: Cross reactivity: FACS binding to H520 cells (ENTPD3 and ENTPD8 expression). More on the design: species or system human. The conditions noted are these: 50 nM antibody. On the procedure:
(§1) FACS screening: Specific binding of candidate antibodies to endogenously expressed ENTPD2 was assessed by flow cytometry. Cells were rinsed thoroughly with 1×PBS and treated with Accutase (Millipore #SCR005) to lift from growth plates and resuspended at approximately 1×10^5 cells/90 μL in 1× FACS buffer (2% FBS+0.1% NaN3 in PBS). In a 96-well U-bottom plate, 10 μL of 10× antibody solution in FACS buffer was pre-seeded and 90 μL of cell suspension was added. Cell were incubated for 30 minutes at 4° C., washed 1× with cold PBS and resuspended in 100 μL of 1:500 secondary antibody 1× FACS buffer (Allophycocyanin conjugated F(ab′)2 goat anti-human IgG, Fcγ specific; Jackson Immunoresearch, Cat#109-136-098). After additional incubation for 15 min at 4° C., cells were washed twice with PBS and resuspended in 100 μL of 1×FACS buffer with 4 μg/mL propidium iodide (Life Technologies, Cat#P3566). Geometric mean fluorescence intensity was calculated on live single cells using FlowJo software.
H520 cells were identified as a cancer cell line with ENTPD3 (Ct 25) and ENTPD8 (Ct 26) expression by Taqman and were used for selectivity screening.
In general terms: Flow cytometry measures light scatter and fluorescence of single cells or particles in a stream.

The test system of another data set is NIH/3T3 cells. In words: Cross reactivity: FACS binding to NIH/3T3 control cells. Conditions: 50 nM antibody. As to the method:
as §1
(§2) Cross reactivity Human ENTPD1 (NP_001767) expressing NIH/3T3 cells were generated using a retroviral transduction approach. 72 hrs post transduction, engineered cells were stained with the anti-Human CD39/ENTPD1 APC-conjugated Antibody (R&D systems, Minneapolis, Minn.) and live cells that expressed human ENTPD1 were separated from the rest of the population via fluorescence activated cell sorting. […]

The subject of data set [2] is cynomologus (cyno) ENTPD2. In words: Biacore (SPR) affinity to cyno ENTPD2 ECD. The format is binding, cynomolgus monkey. Conditions: 25° C. On the procedure: (§3) Biacore Screening: Affinity was measured by determining the kinetic rate constants using surface plasmon resonance (SPR) on a Biacore T200 or T100 with the T200 sensitivity upgrade instrument (Biacore, GE Healthcare). Antibodies were captured on CM5 sensor chips (Biacore, GE Healthcare) prepared with a mouse anti-human IgG Fc antibody (ThermoFisher catalogue #05-4200) amine coupled to the surface. […] ENTPD2 analytes were allowed to associate for 180 s and dissociate for up to 1800 s depending on the off-rate of the antibody at a flow rate of 30 μL/min. The running buffer was PBS pH 7.2 (prepared from a Corning 10X stock, cat#46-013-CM)+0.05% Tween 20. Regeneration was accomplished with 30 s injections of 3 or 4 M MgCl2 to remove all the captured antibody and remaining complex from the surface, after which fresh antibody was captured. The raw data were analyzed using Biacore T200 Evaluation Software version 1.0 and fit to a 1:1 binding model, with all parameters set to fit globally except for RI, which was set to fit locally.

Another data set concerns the target T2, human ENTPD2 (Homo sapiens, UniProt Q9Y5L3).
T2 construct: residues 29-462 of human or cyno ENTPD2 were cloned into expression vector; GP67 signal peptide (N); made in house; host or cells: High Five (Trichoplusia ni) insect cells, baculovirus
T2 sequence (Q9Y5L3 29-462): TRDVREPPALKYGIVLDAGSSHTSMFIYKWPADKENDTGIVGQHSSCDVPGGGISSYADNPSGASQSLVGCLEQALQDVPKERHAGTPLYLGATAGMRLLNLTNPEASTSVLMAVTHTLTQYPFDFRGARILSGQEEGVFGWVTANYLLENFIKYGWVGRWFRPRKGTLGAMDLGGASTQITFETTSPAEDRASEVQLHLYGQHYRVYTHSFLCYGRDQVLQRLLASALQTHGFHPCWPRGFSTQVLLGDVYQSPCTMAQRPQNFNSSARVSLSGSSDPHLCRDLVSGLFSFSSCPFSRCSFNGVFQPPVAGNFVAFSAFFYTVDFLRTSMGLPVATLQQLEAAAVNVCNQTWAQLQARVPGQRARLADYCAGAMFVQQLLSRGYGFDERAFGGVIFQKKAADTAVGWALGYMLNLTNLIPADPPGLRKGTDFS
The data set is described as follows: Biacore (SPR) affinity to human ENTPD2 ECD. In kind it is binding. Conditions: 25° C. On the procedure:
as §3

The target in a further data set is T3, Human ENTPD1 (Homo sapiens, UniProt P49961).
T3 construct: expressed in transfected cells; host or cells: NIH/3T3 (retroviral transduction, FACS-sorted)
T3 sequence (P49961 1-510): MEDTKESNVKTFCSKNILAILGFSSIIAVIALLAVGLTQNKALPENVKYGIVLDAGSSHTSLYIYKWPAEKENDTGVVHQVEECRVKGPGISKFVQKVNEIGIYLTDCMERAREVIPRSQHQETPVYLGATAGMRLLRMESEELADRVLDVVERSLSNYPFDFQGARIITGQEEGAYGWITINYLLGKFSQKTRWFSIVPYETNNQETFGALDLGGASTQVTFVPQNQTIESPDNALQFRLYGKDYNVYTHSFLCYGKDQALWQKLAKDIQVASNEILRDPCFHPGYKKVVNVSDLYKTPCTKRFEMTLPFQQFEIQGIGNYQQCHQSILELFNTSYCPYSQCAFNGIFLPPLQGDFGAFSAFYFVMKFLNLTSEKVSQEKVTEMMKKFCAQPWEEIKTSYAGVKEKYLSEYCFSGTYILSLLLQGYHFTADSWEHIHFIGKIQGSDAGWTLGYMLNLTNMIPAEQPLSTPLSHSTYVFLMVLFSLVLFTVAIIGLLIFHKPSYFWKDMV
In words: Cross reactivity: FACS binding to human ENTPD1 expressing NIH/3T3 cells. Conditions: NIH/3T3-ENTPD1 cells, 50 nM antibody. As to the method: as §1, §2

The next data set addresses T4, ENTPD2 (Homo sapiens, UniProt Q9Y5L3).
T4 sequence (Q9Y5L3 1-495): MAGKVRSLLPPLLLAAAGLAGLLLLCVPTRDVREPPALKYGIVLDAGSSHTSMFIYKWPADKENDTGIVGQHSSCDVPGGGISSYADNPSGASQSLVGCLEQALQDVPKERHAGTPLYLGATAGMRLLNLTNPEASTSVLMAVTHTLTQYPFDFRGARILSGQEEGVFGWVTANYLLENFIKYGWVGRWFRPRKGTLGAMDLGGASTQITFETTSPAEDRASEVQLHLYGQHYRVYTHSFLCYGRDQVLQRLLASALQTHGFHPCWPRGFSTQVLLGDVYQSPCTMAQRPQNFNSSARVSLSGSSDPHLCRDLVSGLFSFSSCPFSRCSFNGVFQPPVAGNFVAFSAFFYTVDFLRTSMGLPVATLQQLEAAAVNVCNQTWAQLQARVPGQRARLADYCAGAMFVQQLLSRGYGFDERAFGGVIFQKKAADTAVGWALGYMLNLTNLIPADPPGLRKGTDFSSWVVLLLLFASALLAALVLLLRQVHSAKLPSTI
The data set is described as follows: Hybridoma mAb screen: cell-based assay for inhibition of ATP hydrolysis by ENTPD2. The conditions noted are these: hybridoma-derived mAbs. The text has this:
Hybridoma-derived mAbs were screened in a cell-based assay for inhibition of ATP hydrolysis by ENTPD2.

For data set [3], the target named is T5, recombinant human ENTPD2 (residues 29-462) (Homo sapiens, UniProt Q9Y5L3).
T5 construct: residues 29-462 of human or cyno ENTPD2 were cloned into expression vector; GP67 signal peptide (N); made in house; host or cells: High Five (Trichoplusia ni) insect cells, baculovirus
T5 sequence (Q9Y5L3 29-462): T2 sequence (Q9Y5L3 29-462)
In words: Biochemical human ENTPD2 functional assay (Transcreener ADP2 TR-FRET). Conditions: FIG. 15. An excerpt: Biochemical and cell-based functional assays were developed in-house to understand functional impact of anti-ENTPD2 Abs against purified extracellular domain of ENTPD2 (residues 29-462), as well as against the fully intact protein in the context of the native cell-based conformation. ENTPD2 hydrolyzes ATP to ADP, which can subsequently be detected using the HTRF Transcreener ADP2 TR-FRET Red Assay (BellBrook Labs, Madison, Wis.) where ENTPD2-produced ADP would compete with the ADP Tracer for binding to the anti-ADP-Tb antibody. The resulting signal is inversely proportional to the concentration of ADP in the sample.
To evaluate activity of anti-ENTPD2 Abs in the ENTPD2 biochemical assay, anti-ENTPD2 Abs and recombinant ENTPD2 (residues 29-462) were diluted in reaction buffer (50 mM HEPES, pH 7.1, 10 mM MgCl2, 0.01% BSA) to the desired concentration. 4 μL per well of the ENTPD2 solution and 2 μL per well of the Anti-ENTPD2 Ab solution were transferred into a ProxiPlate (PerkinElmer, Waltham, Mass.) and incubated for 30 min at room temperature. Reaction was then initiated via addition of 2 μl of ATP (final assay concentration of 1 μM), and the sample was incubated for 25 min at room temperature. […]
HTRF signal (Emission at 620 nm and 665 nm) was assessed in both assays using the Envision plate reader in HTRF mode (Perkin Elmer, Waltham, Mass.). HTRF ratio was determined using the following formula: HTRF ratio=R=Emission at 665 nm/Emission at 620 nm×10,000. Subsequently % Residual Activity and % Inhibition were determined as follows:
Where R0% is the HTRF ratio of the negative control (0% enzyme activity), and R100% is the HTRF ratio of the positive control (100% enzyme activity). Data were analyzed in Microsoft Excel and graphed using GraphPad's Prism 7.0 software and IC50 values were obtained using non-linear regression, log (agonist) vs. response-variable slope (four parameters) analysis.
For orientation: In TR-FRET formats the signal depends on donor and acceptor labels being close together.

The mark [4] stands for this setting: Day 7, mAb 10 mg/kg dosed D1, no anti-PD-1 Ab.

We go through two molecules from patent US20220348651A1, “ENTPD2 ANTIBODIES, COMBINATION THERAPIES, AND METHODS OF USING THE ANTIBODIES AND COMBINATION THERAPIES” (Novartis AG, priority 2019, published 2022).

Sequence of cynomologus (cyno) ENTPD2 (as listed by the source): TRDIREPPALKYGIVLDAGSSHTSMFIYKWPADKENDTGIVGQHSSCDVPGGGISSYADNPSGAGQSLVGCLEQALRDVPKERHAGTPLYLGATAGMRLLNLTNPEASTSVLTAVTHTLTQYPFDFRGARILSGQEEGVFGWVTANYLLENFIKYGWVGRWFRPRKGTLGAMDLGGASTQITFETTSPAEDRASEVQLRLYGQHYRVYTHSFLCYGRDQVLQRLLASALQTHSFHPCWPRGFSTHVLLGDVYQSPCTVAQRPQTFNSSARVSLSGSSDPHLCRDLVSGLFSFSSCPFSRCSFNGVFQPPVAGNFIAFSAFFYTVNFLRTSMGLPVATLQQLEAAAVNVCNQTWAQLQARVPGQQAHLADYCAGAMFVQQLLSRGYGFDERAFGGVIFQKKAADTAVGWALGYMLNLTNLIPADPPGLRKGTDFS

B1: mAb6: humanized anti-human ENTPD2 antibody from mAb16; VH SEQ ID NO: 70, VL SEQ ID NO: 74 (antibody, V domains shown)
VH: QVQLQESGPGLVKPSQTLSLTCTVSGYSITSGYYWNWIRQHPGKGLEWMGYISYDADNNYNPSLKNRITISRDTSKNQFSLKLSSVTAADTAVYYCAGGYYRYGLGSYSGSYYYVMDYWGQGTTVTVSS
VL: DTQMTQSPSSLSVSVGDRATITCKASQSVDYEGHSYMNWYQQKPGKAPKLLIYAASNLESGVPSRFSGSGSGTDFTLTISSVQPEDFATYYCQQSNEDPPTFGGGTKLEIK
Regarding B1, the ΔT/ΔC in data set [1] (0.1 mg/kg i.v. day 1, combination with anti-PD-1 Ab fixed dose 10 mg/kg, Day 7) amounted to 41.0%; in data set [1] (1 mg/kg i.v. day 1, combination with anti-PD-1 Ab fixed dose 10 mg/kg, Day 7), 27.3%; in [1] (10 mg/kg i.v. day 1, combination with anti-PD-1 Ab fixed dose 10 mg/kg, Day 7), 29.2%. In addition, the “Host Response Survival (alive/total)” value in data set [1] (setting [4]) was 8/8. In addition, the “Host Response Δ body weight” value in data set [1] (setting [4]) is recorded as −0.1%. Also, the “Tumor Response ΔT/ΔC” value in data set [1] (setting [4]) was determined as 60.0%. Further, in data set [1] (as single agents, i.v. day 1), the anti-tumor efficacy result is “No significant anti-tumor efficacy”. Further, the “BIACore KD” value in the data set with mouse ENTPD2 is on record as “No binding”. The “Apparent FACS binding at 50 nM” value in the data set with H520 cells, in the data set with NIH/3T3 cells and with Human ENTPD1 was “No binding” throughout. In addition, the ka in data set [2] was found to be 290000 M⁻¹ s⁻¹; in the data set with human ENTPD2, 350000 M⁻¹ s⁻¹. Further, the kd came out at 0.01 s⁻¹ in [2] and 0.00026 s⁻¹ in the data set with human ENTPD2.

B2: mAb17: hybridoma-derived lead inhibitory anti-human ENTPD2 mAb; VH/VL DNA SEQ ID NO: 234/238 (antibody, V domains shown)
VH: EVQLQQFGAELVKPGASVKISCKASGYTFTDYNMDWVKQSHGKSLEWIGDINPKYDISTYNQQFKGKATLTVDKSSSTAYMELRSLTSEDTAVYYCARRGFFLYYGINYYYFDVWGAGTTVTVSS
VL: QIVLTQSPAIMSASLGEEITLTCSASSSVSYIHWYQQKSGTSPTLLIYSTSNLASGVPSRFSGSGSGTFYSLTISSVEAEDAADYYCHQWSSYPWTFGGGTKLEIK
Regarding B2, the “inhibition of ATP hydrolysis by ENTPD2” value with ENTPD2 was “lead inhibitory mAbs”. Moreover, in data set [3], the “inhibition of the catalytic activity of recombinant human ENTPD2” value is on record as “potently inhibit”.
